From article PMC3316568, “Crystal Structure of Streptococcus pyogenes Csn2 Reveals Calcium-Dependent Conformational Changes in Its Tertiary and Quaternary Structure” (PLoS ONE, 2012)

Columns and labels:
Csn2 [1] = target: T1, Csn2 (Streptococcus pyogenes, UniProt Q99ZV9 1-220); assay: EMSA; no added metal; DNA:Csn2 tetramer 1:0, 1:1, 1:10; 50 mM NaCl, 20 mM HEPES pH 7.5, room temperature, 20 min; 150 ng DNA; 10% native Tris-glycine PAGE, ethidium bromide stain; settings: protein: recombinant; tags: (His)6-MBP tag removed by TEV protease; chain copies: 4
T1 sequence: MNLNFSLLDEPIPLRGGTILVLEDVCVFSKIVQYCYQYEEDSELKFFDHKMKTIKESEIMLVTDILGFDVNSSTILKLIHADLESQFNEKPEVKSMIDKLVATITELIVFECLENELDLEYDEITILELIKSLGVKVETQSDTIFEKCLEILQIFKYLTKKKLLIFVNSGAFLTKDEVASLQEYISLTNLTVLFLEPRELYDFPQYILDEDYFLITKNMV

Csn2 [2] = target: T1, Csn2; assay: EMSA; no added metal; DNA:Csn2 tetramer 1:0, 1:1, 1:10; non-specific binding; 50 mM NaCl, 20 mM HEPES pH 7.5, room temperature, 20 min; 150 ng DNA; 10% native Tris-glycine PAGE, ethidium bromide stain; settings: protein: recombinant; tags: (His)6-MBP tag removed by TEV protease; chain copies: 4
[3] = target: the molecule itself; assay: crystal structure; selenomethionyl Csn2, 2.2 Å, MAD; crystals at 20°C from 150 mM KCl, 4 mM DTT, 100 mM HEPES pH 7.0 with 2.3 M sodium acetate pH 7.0; no calcium added; dimer in the asymmetric unit, tetramer with the symmetry-related dimer
[4] = target: the molecule itself; assay: SEC; analytical, Superdex 200 10/300 GL; 200 mM NaCl, 2 mM DTT, 10 mM Tris-HCl pH 8.0; 0.5 mL of 1.0 mg/mL Csn2; no calcium added

B1: S. pyogenes CRISPR DNA 90 bp (dsDNA)
DNA 1: TTTTAGACAAAAATAGTCTACGAGGTTTTAGAGCTATGCTGTTTTGAATGGTCCCAAAACTGCGCTGGTTGATTTCTTCTTGCGCTTTTT
DNA 2: AAAAAGCGCAAGAAGAAATCAACCAGCGCAGTTTTGGGACCATTCAAAACAGCATAGCTCTAAAACCTCGTAGACTATTTTTGTCTAAAA
B1: binds (Csn2 [1]).

B2: control DNA 90 bp (ERD1 promoter) (dsDNA)
DNA 1: TCTTAAAACTCCACAAACATTACGGCAGTTAGAATTTAAATTTATCTTGGAATATTGTTTGTATATTATTAACAAATGTAAATTGGTGTA
DNA 2: TACACCAATTTACATTTGTTAATAATATACAAACAATATTCCAAGATAAATTTAAATTCTAACTGCCGTAATGTTTGTGGAGTTTTAAGA
B2: binds (Csn2 [2]).

B3: Selenomethionyl Streptococcus pyogenes Csn2 (natural protein)
chain: MNLNFSLLDEPIPLRGGTILVLEDVCVFSKIVQYCYQYEEDSELKFFDHKMKTIKESEIMLVTDILGFDVNSSTILKLIHADLESQFNEKPEVKSMIDKLVATITELIVFECLENELDLEYDEITILELIKSLGVKVETQSDTIFEKCLEILQIFKYLTKKKLLIFVNSGAFLTKDEVASLQEYISLTNLTVLFLEPRELYDFPQYILDEDYFLITKNMV
modifications: selenomethionine (SeMet labelling)
notes: Csn2, CRISPR-associated protein of the Nmeni subtype (type II-A), Streptococcus pyogenes; same construct as m1, expressed as selenomethionyl protein; residues up to 220 are named for the structure; Same construct as m1 with selenomethionine; Two monomers (A, B) in the asymmetric unit; the tetramer is formed with a symmetry-related dimer; also called SeMet Csn2; selenomethionyl S. pyogenes Csn2; …
B3 was tested, and the “stoichiometry N” value [3] was 4.

B4: Streptococcus pyogenes Csn2 (native) (natural protein)
chain: MNLNFSLLDEPIPLRGGTILVLEDVCVFSKIVQYCYQYEEDSELKFFDHKMKTIKESEIMLVTDILGFDVNSSTILKLIHADLESQFNEKPEVKSMIDKLVATITELIVFECLENELDLEYDEITILELIKSLGVKVETQSDTIFEKCLEILQIFKYLTKKKLLIFVNSGAFLTKDEVASLQEYISLTNLTVLFLEPRELYDFPQYILDEDYFLITKNMV
notes: Csn2, CRISPR-associated protein of the Nmeni subtype (type II-A), Streptococcus pyogenes; the csn2 gene cloned into pHMGWA; monomeric molecular weight printed as 26.0 kDa; residues up to 220 are named for the structure; also called Native Csn2; source: E. coli BL21 (DE3), purified (HisTrap HP, TEV cleavage, second HisTrap HP, Superdex200); not shown: His6, N-terminal, cleaved; MBP, N-terminal, …
In the case of B4, the “stoichiometry N” value [4] is reported as 4.
